The labels stand for the following.
B1: Metabotropic glutamate receptor 1 (Rattus norvegicus (Rat)), P23385 (parent)
chain: MVRLLLIFFPMIFLEMSILPRMPDRKVLLAGASSQRSVARMDGDVIIGALFSVHHQPPAEKVPERKCGEIREQYGIQRVEAMFHTLDKINADPVLLPNITLGSEIRDSCWHSSVALEQSIEFIRDSLISIRDEKDGLNRCLPDGQTLPPGRTKKPIAGVIGPGSSSVAIQVQNLLQLFDIPQIAYSATSIDLSDKTLYKYFLRVVPSDTLQARAMLDIVKRYNWTYVSAVHTEGNYGESGMDAFKELAAQEGLCIAHSDKIYSNAGEKSFDRLLRKLRERLPKARVVVCFCEGMTVRGLLSAMRRLGVVGEFSLIGSDGWADRDEVIEGYEVEANGGITIKLQSPEVRSFDDYFLKLRLDTNTRNPWFPEFWQHRFQCRLPGHLLENPNFKKVCTGNESLEENYVQDSKMGFVINAIYAMAHGLQNMHHALCPGHVGLCDAMKPIDGRKLLDFLIKSSFVGVSGEEVWFDEKGDAPGRYDIMNLQYTEANRYDYVHVGTWHEGVLNIDDYKIQMNKSGMVRSVCSEPCLKGQIKVIRKGEVSCCWICTACKENEFVQDEFTCRACDLGWWPNAELTGCEPIPVRYLEWSDIESIIAIAFSCLGILVTLFVTLIFVLYRDTPVVKSSSRELCYIILAGIFLGYVCPFTLIAKPTTTSCYLQRLLVGLSSAMCYSALVTKTNRIARILAGSKKKICTRKPRFMSAWAQVIIASILISVQLTLVVTLIIMEPPMPILSYPSIKEVYLICNTSNLGVVAPVGYNGLLIMSCTYYAFKTRNVPANFNEAKYIAFTMYTTCIIWLAFVPIYFGSNYKIITTCFAVSLSVTVALGCMFTPKMYIIIAKPERNVRSAFTTSDVVRMHVGDGKLPCRSNTFLNIFRRKKPGAGNANSNGKSVSWSEPGGRQAPKGQHVWQRLSVHVKTNETACNQTAVIKPLTKSYQGSGKSLTFSDASTKTLYNVEEEDNTPSAHFSPPSSPSMVVHRRGPPVATTPPLPPHLTAEETPLFLADSVIPKGLPPPLPQQQPQQPPPQQPPQQPKSLMDQLQGVVTNFGSGIPDFHAVLAGPGTPGNSLRSLYPPPPPPQHLQMLPLHLSTFQEESISPPGEDIDDDSERFKLLQEFVYEREGNTEEDELEEEEDLPTASKLTPEDSPALTPPSPFRDSVASGSSVPSSPVSESVLCTPPNVTYASVILRDYKQSSSTL

The assay covers variants of B1. The note with it: with pp1g_rat Ppp1cc.
For S892A, the “effect of a mutation on the interaction” value was “decreasing interaction”.
